Measured values reported in patent publication US20230078265A1, “METHODS AND COMPOSITIONS FOR EDITING NUCLEOTIDE SEQUENCES” (The Broad Institute, Inc., priority 2019, published 2023).

Legend:
HEK cells = assay: Npu intein-split prime editors, plasmid transfection of HEK cells, high-throughput sequencing; type: cell-based; conditions: plasmids, split site 1023/1024
Source text: This Example is focused on a PE fusion protein comprising the canonical SpCas9 (SEQ ID NO: 18). The split sites for other Cas9 proteins may be the corresponding same site, or may need to be optimized for each different Cas9 protein. In the instant Example, the prime editor was split between residues 1023 and 1024 of SpCas9 (SEQ ID NO: 18). This is referred to as the “1023/1024” split site.
Prime editors (PEs) exceed the AAV packaging capacity.
It was therefore determined whether mutation from the Cas9-native “SEQ” towards the Npu intein “CFN” sequence altered efficiency of prime editing.

DNA = conditions: mutation relative to canonical SpCas9, SEQ ID NO: 18; cited from earlier work

B1: 1024-CFN: intein-split PE with extein residues mutated to Npu-native CFN (protein)
chain: MKRTADGSEFESPKKKRKVIKIATRKYLGKQNVYDIGVERDHNFALKNGFIASNCFNEIGKATAKYFFYSNIMNFFKTEITLANGEIRKRPLIETNGETGEIVWDKGRDFATVRKVLSMPQVNIVKKTEVQTGGFSKESILPKRNSDKLIARKKDWDPKKYGGFDSPTVAYSVLVVAKVEKGKSKKLKSVKELLGITIMERSSFEKNPIDFLEAKGYKEVKKDLIIKLPKYSLFELENGRKRMLASAGELQKGNELALPSKYVNFLYLASHYEKLKGSPEDNEQKQLFVEQHKHYLDEIIEQISEFSKRVILADANLDKVLSAYNKHRDKPIREQAENIIHLFTLTNLGAPAAFKYFDTTIDRKRYTSTKEVLDATLIHQSITGLYETRIDLSQLGGDSGGSSGGSSGSETPGTSESATPESSGGSSGGSSTLNIEDEYRLHETSKEPDVSLGSTWLSDFPQAWAETGGMGLAVRQAPLIIPLKATSTPVSIKQYPMSQEARLGIKPHIQRLLDQGILVPCQSPWNTPLLPVKKPGTNDYRPVQDLREVNKRVEDIHPTVPNPYNLLSGLPPSHQWYTVLDLKDAFFCLRLHPTSQPLFAFEWRDPEMGISGQLTWTRLPQGFKNSPTLFNEALHRDLADFRIQHPDLILLQYVDDLLLAATSELDCQQGTRALLQTLGNLGYRASAKKAQICQKQVKYLGYLLKEGQRWLTEARKETVMGQPTPKTPRQLREFLGKAGFCRLFIPGFAEMAAPLYPLTKPGTLFNWGPDQQKAYQEIKQALLTAPALGLPDLTKPFELFVDEKQGYAKGVLTQKLGPWRRPVAYLSKKLDPVAAGWPPCLRMVAAIAVLTKDAGKLTMGQPLVILAPHAVEALVKQPPDRWLSNARMTHYQALLLDTDRVQFGPVVALNPATLLPLPEEGLQHNCLDILAEAHGTRPDLTDQPLPDADHTWYTDGSSLLQEGQRKAGAAVTTETEVIWAKALPAGTSAQRAELIALTQALKMAEGKKLNVYTDSRYAFATAHIHGEIYRRRGWLTSEGKEIKNKDEILALLKALFLPKRLSIIHCPGHQKGHSAEARGNRMADQAARKAAITETPDTSTLLIENSSPSGGSKRTADGSEFEPKKKRK
- prime editing activity compared with full-length PE3 (HEK cells): recapitulates full-length PE3 activity

B2: 175-307 deletion: SpCas9 mutation relative to SEQ ID NO: 18 (protein)
chain: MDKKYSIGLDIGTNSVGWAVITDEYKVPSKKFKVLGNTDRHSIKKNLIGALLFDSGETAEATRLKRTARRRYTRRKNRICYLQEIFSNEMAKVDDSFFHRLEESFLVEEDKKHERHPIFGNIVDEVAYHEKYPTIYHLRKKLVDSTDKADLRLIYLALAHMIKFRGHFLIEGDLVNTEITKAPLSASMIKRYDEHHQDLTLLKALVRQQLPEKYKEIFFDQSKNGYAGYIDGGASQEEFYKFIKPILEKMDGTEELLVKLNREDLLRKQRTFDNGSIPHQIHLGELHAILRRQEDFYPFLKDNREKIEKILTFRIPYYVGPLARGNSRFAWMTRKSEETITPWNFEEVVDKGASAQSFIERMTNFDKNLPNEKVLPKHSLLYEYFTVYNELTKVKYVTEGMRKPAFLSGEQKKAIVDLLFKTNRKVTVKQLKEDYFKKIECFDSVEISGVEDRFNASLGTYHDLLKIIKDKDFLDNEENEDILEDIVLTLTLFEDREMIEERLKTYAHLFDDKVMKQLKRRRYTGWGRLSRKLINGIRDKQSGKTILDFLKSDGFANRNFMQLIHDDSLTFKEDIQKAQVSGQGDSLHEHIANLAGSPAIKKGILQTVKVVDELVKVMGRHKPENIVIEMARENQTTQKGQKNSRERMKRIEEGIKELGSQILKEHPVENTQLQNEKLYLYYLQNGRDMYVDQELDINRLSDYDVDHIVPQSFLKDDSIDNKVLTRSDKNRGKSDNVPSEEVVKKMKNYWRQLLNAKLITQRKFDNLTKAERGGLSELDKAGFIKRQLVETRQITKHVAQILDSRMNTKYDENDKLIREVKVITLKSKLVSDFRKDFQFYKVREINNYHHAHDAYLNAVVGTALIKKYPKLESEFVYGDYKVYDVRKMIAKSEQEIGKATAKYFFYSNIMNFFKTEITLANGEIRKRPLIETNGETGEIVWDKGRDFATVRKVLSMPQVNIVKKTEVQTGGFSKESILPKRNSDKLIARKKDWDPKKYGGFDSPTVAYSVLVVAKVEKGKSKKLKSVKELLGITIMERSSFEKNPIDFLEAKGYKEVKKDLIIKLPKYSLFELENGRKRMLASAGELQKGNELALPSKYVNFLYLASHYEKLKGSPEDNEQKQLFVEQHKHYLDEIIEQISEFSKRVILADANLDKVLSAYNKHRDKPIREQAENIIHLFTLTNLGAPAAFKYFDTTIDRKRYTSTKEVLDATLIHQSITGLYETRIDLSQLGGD
modifications: Streptococcus pyogenes
- decreased DNA cleavage (DNA): About 50% decreased DNA cleavage
